Test results from patent US20190040143A1 (AstraZeneca / MedImmune, published 2019).

Key:
[1] = target: T1, recombinant HER3 (Cat. No. 348-RB, R&D Systems) (UniProt P21860 20-643); test: HRG-HER3 binding ELISA: HRGb1 coated, antibody dilutions premixed with 5 ug/ml recombinant His-tagged HER3, bound HER3 detected with anti-His HRP; blocked ligand HRG
T1 construct: Detected through a His tag; also called labeled recombinant HER3 protein

[2] = target: human HER3 on human cancer cell lines (human, UniProt P21860 20-1342); test: cell-based or functional assay

Binder	IC50 (read off the curve) [1] [µg/mL]	potency by IC50 in HRGβ1-induced pHER3 ELISA, MCF-7 cells, against MM and AMG [2] [fold]
Clone 16 antibody (CL16), parental IgG1 (antibody, V domains shown, also called Clone 16-PA; parental Clone 16 monoclonal antibody) VH: EVQLLESGGGLVQPGGSLRLSCAASGFTFSYYYMQWVRQAPGKGLEWVSYIGSSGGVTNYADSVKGRFTISRDNSKNTLYLQMNSLRAEDTAVYYCARVGLGDAFDIWGQGTMVTVSS VL: QYELTQPPSASGTPGQRVTMSCSGSSSNIGLNYVSWYQQLPGTAPKLLISRNNQRPSGVPDRFSGSKSGTSASLAISGLRSEDEADYYCAAWDDSLSGEVFGGGTKLTVL	~0.7	
2C2 monoclonal antibody (IgG1) (antibody, V domains shown) VH: EVQLLESGGGLVQPGGSLRLSCAASGFTFSYYYMQWVRQAPGKGLEWVSYIGSSGGVTNYADSVKGRFTISRDNSKNTLYLQMNSLRAEDTAVYYCARVGLGDAFDIWGQGTMVTVSS VL: QSVLTQPPSASGTPGQRVTISCSGSLSNIGLNYVSWYQQLPGTAPKLLISRNNQRPSGVPDRFSGSKSGTSASLAISGLRSEDEADYYCAAWDDSPPGEAFGGGTKLTVL		~5
